{"source": "patent US10869832B2", "about": "“Substance delivery device and substance delivery method using the same” (priority 2013, dated 2020)", "tested_on": "OVA-specific IgG", "assay": "OVA-specific IgG by ELISA after single-dose immunization", "assay_type": "in vivo", "conditions": "SD rats, two weeks after injection, single dose (IM 500 μg OVA, MN 200 μg OVA)", "method": "4-week-old SD rats are divided into four groups. Rats of the first three groups are injected with saline, OVA, and chitosan hydrogel loaded with OVA by intramuscular inoculation, respectively. The fourth group is administrated with OVA through the microneedle patch of the present embodiment. In detail, the SD rat is weighed, anesthetized, and shaved. 200 μl of saline is injected into the thigh of each SD rat of the first group (“IM saline” group). 500 μg of OVA in the same volume are injected into the thigh of each SD rat of the second group (“IM-OVA” group). 200 μl of chitosan hydrogel loaded with 500 μg of OVA (mixed in the same ratio as the microneedle patch) are injected into the thigh of each SD rat of the third group (“IM-OVA+CS” group). A microneedle patch encapsulating 200 μg of OVA is applied the each SD rat of the fourth group (“MN-OVA” group). The blood of each SD rat of each group sampled at the 0, 2nd and 4th week after injection is centrifuged for 5 minutes at 3000 rpm to separate serum from blood cells in the plasma. IgG levels in the collected serum are then evaluated by ELISA."}
{"molecule": "IM-OVA: 500 μg of OVA (ovalbumin) injected intramuscularly (protein, UniProt P01012 2-386, looked up) Ovalbumin: GSIGAASMEFCFDVFKELKVHHANENIFYCPIAIMSALAMVYLGAKDSTRTQINKVVRFDKLPGFGDSIEAQCGTSVNVHSSLRDILNQITKPNDVYSFSLASRLYAEERYPILPEYLQCVKELYRGGLEPINFQTAADQARELINSWVESQTNGIIRNVLQPSSVDSQTAMVLVNAIVFKGLWEKAFKDEDTQAMPFRVTEQESKPVQMMYQIGLFRVASMASEKMKILELPFASGTMSMLVLLPDEVSGLEQLESIINFEKLTEWTSSNVMEERKIKVYLPRMKMEEKYNLTSVLMAMGITDVFSSSANLSGISSAESLKISQAVHAAHAEINEAGREVVGSAEAGVDAASVSEEFRADHPFLFCIKHIATNAVLFFGRCVSP", "values": [{"measurement": "OVA-specific IgG level", "result": "much lower than the MN-OVA and IM-OVA+CS group"}]}
